Assay results as given in US20240115720A1 (Memorial Sloan Kettering, published 2024).

B1: 7-I1-B (antibody, V domains shown)
VH: EVQLVESGGGLVKPGGSLRLSCAASGFTFSNTWMSWVRQAPGKGLEWVGRIKSKSDGGTTDYAAPVKGRFTISRDDSKNTLYLQMNSLKTEDTAVYYCTQYYWNSFDYWGQGTLVTVSS
VL: not shown
notes: also called 7-I1-B mAb
B2: 2-C8-A (antibody, V domains shown)
VH: EVQLVESGGGLVQPGGSQRLSCAASGFTFSSYWMNWVRQAPGKGLEWVANIKEDGSEKYYVDSVKGRFTISRDNAKNSLYLQMNSLRAEDTAVYYCARDPGWAPFDYWGQGTLVTVSS
VL: DIQMSQSPSSLSASVGDRVTITCRASQGISNYLAWFQQKPGKAPKSLIYAASSLQSGVPSKFSGSGSGTDFTLAISSLQPEDFATYYCQQYNSFPYTFGQGTTLEIK
notes: also called 2-C8-A monoclonal antibody
B3: 6-G23-F (antibody, V domains shown)
VH: QVQLVQSGAEVKKPGASVKVSCKASGYTFTSYYIHWVRQAPGQGLEWMGIIDPSDGSTNYAQKFQGRVTMTRDTSTSTVYMELSSLRSEDTAVYYCARDREYNYYGLDVWGQGTTVTVSS
VL: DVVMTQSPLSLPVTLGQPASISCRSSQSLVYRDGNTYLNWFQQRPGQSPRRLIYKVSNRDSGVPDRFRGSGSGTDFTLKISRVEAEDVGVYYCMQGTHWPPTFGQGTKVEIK
notes: also called 6-G23-F monoclonal antibody
B4: 10-O18-A (antibody, V domains shown)
VH: QVQLQESGPGLVKPSETLSLTCTVSGGSINSYYWSWIRQPPGKGLEWIGYIFYSGITNYNPSLKSRVTISLDTSKNQFSLKLSSVTAADTAVYYCARIGVAGFYFDYWGQGTLVTVSS
VL: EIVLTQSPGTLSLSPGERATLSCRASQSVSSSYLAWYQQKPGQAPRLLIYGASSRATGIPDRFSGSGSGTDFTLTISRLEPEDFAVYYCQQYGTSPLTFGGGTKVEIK
notes: Hybridoma monoclonal from Ablexis AlivaMAb Kappa mice; it was captured on anti-mouse Fc sensors and detected with anti-mouse IgG / anti-mouse IgG1 reagents; also called 10-O18-A monoclonal antibody

target: T1, full-length cynomolgous DLL3 on HEK293 cells (cynomolgous, UniProt A0A2K5WSR1 27-585); experiment: flow cytometry, HEK293 cells transfected with full-length cynomolgous DLL3, mAb 10 µg/ml
T1 construct: also called 293 cyno DLL3
T1 sequence: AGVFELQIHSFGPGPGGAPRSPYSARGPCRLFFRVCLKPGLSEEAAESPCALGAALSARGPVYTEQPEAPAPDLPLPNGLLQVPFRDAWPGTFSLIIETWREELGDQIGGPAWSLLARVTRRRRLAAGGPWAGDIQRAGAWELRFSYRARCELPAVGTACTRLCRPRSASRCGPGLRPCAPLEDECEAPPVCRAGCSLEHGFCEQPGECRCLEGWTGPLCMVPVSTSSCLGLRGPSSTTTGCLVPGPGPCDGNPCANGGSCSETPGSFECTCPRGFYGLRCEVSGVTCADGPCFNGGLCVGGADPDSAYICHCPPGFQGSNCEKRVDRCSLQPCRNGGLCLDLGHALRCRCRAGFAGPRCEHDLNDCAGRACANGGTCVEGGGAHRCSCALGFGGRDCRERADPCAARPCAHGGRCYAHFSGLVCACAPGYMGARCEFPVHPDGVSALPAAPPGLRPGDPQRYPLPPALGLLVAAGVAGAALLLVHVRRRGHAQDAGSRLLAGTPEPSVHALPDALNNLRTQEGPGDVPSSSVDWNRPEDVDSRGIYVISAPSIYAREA
Description: (§1) For this purpose, HEK293 cells were transfected with plasmid DNA encoding full-length human, mouse or cynomolgous DLL3 and used in the experiment. Briefly […] transfected HEK293 cells or NCI-H82 primary cells were added in FACS buffer PBS 0.5% BSA to the wells of a 96 well U bottom plate and purified monoclonal added to 10 μg/ml. After 30 minutes incubation at 4° C. the cells were washed 3 times in FACS buffer and incubated with a PE labelled F(ab)2 anti-mouse IgG H and L 2nd stage. After another 30 minutes incubation at 4° C. the cells were washed three times in FACS buffer and analyzed on the flow cytometer. Data are presented at the ratio of the Mean Fluorescent Intensity for the monoclonal divided by the background staining with the 2nd stage.

Row | Binder | ratio of the Mean Fluorescent Intensity for the monoclonal divided by the background staining with the 2nd stage
1 | B1 | 18.7
2 | B2 | 15
3 | B3 | 13.1
4 | B4 | 9.85

target: T2, full-length human DLL3 on cells (human, UniProt Q9NYJ7 27-618); experiment: flow cytometry, NCI-H82 cells (endogenous human DLL3), mAb 10 µg/ml
T2 construct: also called hDLL3; 293 hDLL3
T2 sequence: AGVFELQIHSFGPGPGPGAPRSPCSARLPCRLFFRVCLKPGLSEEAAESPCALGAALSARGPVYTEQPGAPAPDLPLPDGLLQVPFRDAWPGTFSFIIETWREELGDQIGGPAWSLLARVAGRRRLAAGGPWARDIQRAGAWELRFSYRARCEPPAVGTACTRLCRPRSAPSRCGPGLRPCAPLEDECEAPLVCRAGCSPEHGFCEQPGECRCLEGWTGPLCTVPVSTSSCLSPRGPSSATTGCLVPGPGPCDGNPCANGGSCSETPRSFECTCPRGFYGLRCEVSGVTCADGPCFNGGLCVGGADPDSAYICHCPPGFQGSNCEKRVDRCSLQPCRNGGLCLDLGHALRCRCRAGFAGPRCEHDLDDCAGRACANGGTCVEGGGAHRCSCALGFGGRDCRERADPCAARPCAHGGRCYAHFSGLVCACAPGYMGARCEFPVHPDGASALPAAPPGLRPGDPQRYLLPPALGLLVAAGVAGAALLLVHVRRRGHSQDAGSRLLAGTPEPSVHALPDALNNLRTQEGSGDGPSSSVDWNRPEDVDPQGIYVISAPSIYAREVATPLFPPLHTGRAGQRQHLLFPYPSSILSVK
Description: as §1

Row | Binder | ratio of the Mean Fluorescent Intensity for the monoclonal divided by the background staining with the 2nd stage
5 | B1 | 19.2
6 | B2 | 11.9
7 | B3 | 11.1
8 | B4 | 9.4

target: T2, full-length human DLL3 on cells; experiment: cell-based or functional assay

Row | Binder | Dy light Dy650 fluorescence in the quenching internalization assay on NCI-H82 cells (% of the Control Reference Monoclonal Antibody)
9 | B1 | 70.1 % of the Control Reference Monoclonal Antibody
10 | B2 | 62.9 % of the Control Reference Monoclonal Antibody
11 | B3 | 76.5 % of the Control Reference Monoclonal Antibody

target: T2, full-length human DLL3 on cells; experiment: cell-based or functional assay; remark: another data set of the same source

Row | Binder | MFI Ratio (4°C / 37°C staining of NCI-H82 cells; relative measure of internalization)
12 | B1 | 1.68
13 | B2 | 1.76
14 | B3 | 1.67
15 | B4 | 1.56

target: T3, full-length mouse DLL3 on HEK293 cells (mouse, UniProt O88516 33-584); experiment: flow cytometry, HEK293 cells transfected with full-length mouse DLL3, mAb 10 µg/ml
T3 construct: DLL3'; also called 293 mDLL3
T3 sequence: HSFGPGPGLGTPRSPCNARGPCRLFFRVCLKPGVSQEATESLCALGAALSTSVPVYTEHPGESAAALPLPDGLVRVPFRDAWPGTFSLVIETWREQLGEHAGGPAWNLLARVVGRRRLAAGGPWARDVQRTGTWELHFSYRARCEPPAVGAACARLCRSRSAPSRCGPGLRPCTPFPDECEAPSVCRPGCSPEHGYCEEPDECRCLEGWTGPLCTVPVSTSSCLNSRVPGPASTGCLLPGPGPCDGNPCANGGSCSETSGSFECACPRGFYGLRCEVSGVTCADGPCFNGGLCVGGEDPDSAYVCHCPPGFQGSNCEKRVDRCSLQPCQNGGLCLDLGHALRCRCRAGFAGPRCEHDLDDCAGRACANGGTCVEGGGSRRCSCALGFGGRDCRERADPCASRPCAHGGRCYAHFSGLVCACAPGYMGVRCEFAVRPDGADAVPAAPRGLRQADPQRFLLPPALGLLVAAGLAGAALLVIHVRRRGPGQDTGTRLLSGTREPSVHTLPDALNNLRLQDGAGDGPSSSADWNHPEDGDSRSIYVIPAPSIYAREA
Description: as §1

Row | Binder | ratio of the Mean Fluorescent Intensity for the monoclonal divided by the background staining with the 2nd stage
16 | B1 | 4.7
17 | B2 | 1.5
18 | B3 | 3.97
19 | B4 | 0.99

target: T2, full-length human DLL3 on cells; experiment: flow cytometry, HEK293 cells transfected with full-length human DLL3, mAb 10 µg/ml
Description: as §1

Row | Binder | ratio of the Mean Fluorescent Intensity for the monoclonal divided by the background staining with the 2nd stage
20 | B1 | 9.74
21 | B2 | 7.71
22 | B3 | 6.33
23 | B4 | 4.74

target: T2, full-length human DLL3 on cells; experiment: cell-based or functional assay; remark: another data set of the same source

Row | Binder | FAB ZAP % SC16 Max Killing (NCI-H82 cells)
24 | B1 | 97 % SC16 Max Killing
25 | B2 | 89 % SC16 Max Killing
26 | B3 | 94 % SC16 Max Killing
